Data published in patent US20230296569A1, “Substance quantification in complex mixtures” (ISA Pharmaceuticals B.V., priority 2021, published 2023).

How the values were obtained:
[1] = Peptide content (assay) of lyophilized drug product by UPLC-UV at 220 nm, method according to the invention (USP reserpine reference standard, RRF); type: physicochemical; settings: method according to the invention (USP RS)
Description: The UPLC method similar to Example 1 was used for the quantification of analytes (i.e. the individual peptides) in mixtures DP-5P (SEQ ID NO: 1-5) and DP-7P (SEQ ID NO: 6-12) and for the determination of content uniformity of mixtures DP-5P and DP-7P (lyophilized product). The method is based on the use of an external reference standard. The relative response factor (ratio of molar extinction coefficients, RRF) against this external reference standard has been established for each peptide. The purity, individual related substances, and the assay of DP-5P and DP-7P were determined by reversed phase rapid HPLC (UPLC) using a mobile phase gradient of ACN/IPA and water and UV detection at λ220 nm.
The following lyophilized peptide compositions were used: DP-5P comprising peptides represented herein by SEQ ID NO: 1-5 admixed at equal net weights of 0.40 mg of each peptide per vial (total amount of protein per vial being 2.00 mg) and 0.56 mg TFA per vial; and DP-7P comprising peptides represented herein by SEQ ID NO: 6-12 admixed at equal net weights of 0.40 mg of each peptide per vial (total amount of protein per vial being 2.80 mg) and 0.96 mg TFA per vial. The following chemicals were used: Acetonitrile, (Biosolve, 01204102); UPLC water, (Type 1, milli-Q); trifluoroacetic acid, (Chem Lab, CLoo.2094.0001), 2-propanol, (UPLC/MS grade, Biosolve, 16264102); Reserpine, (USP, Sigma Aldrich, 1601000). The following equipment was used: QuanRecovery vials, (Waters, 186009186); UPLC pump equipped with a gradient system, autosampler, and UV detection (Waters Acquity or equivalent) and mixer volume 425 μL.
• Mobile phase A: 0.1% (v/v) TFA in water • Mobile phase B: 0.1% (v/v) TFA in 70/30 ACN/IPA • Diluent A: 0.05% (v/v) TFA in water • Diluent B: 0.05% (v/v) TFA in ACN • Blank solution: 80/20 (v/v) diluent A/diluent B • Purge solvent: 80/20 (v/v) water/ACN • Needle wash: 0.05% (v/v) TFA in 80/20 (v/v) water/ACN
5.00 mg Reserpine reference material was accurately weighed and added into a 50 mL volumetric flask. 40.0 mL of blank solution was added, by means of a volumetric pipette. The solution was stirred for 10 min, by means of a magnetic stirrer, until fully dissolved. The solution was diluted to volume with blank solution and mixed well.
Transfer of 2.0 mL, by means of a volumetric pipette, of stock reference solution 1 into a 20 mL volumetric flask. Diluted to volume with blank solution and homogenized.
This sample preparation was setup for lyophilized products DP-5P and DP-7P in an initially sealed container. Before opening and dissolving the drug product, the vials were equilibrated at room temperature for at least 1 hour. The content of the vial was dissolved with 0.8 mL of diluent B, and stirred for 20 min, using a magnetic stirrer. 3.2 mL of diluent A were added. The solution was stirred well for 20 min, using a magnetic stirrer. After dissolving the content of the vial, the sample vial was kept on the lab bench for 30 minutes. The solution was stirred briefly and transferred into an HPLC vial.
• Column: Advance Bio Peptide Map (2.7 μm, 250 x 2.1 mm) • Sample matrix 0.05%v/v TFA in ACN : water (1:4 v/v) • Sample concentration 100 μg/mL net peptide (of each drug substance), duplicate • Injection volume: 10 μL • Column temperature: 40° C. • Sample temperature: 5° C. • Detection: UV (λ=220 nm) • Flow rate: 0.2 mL/min • Run time: 65 min • Purge solvent: 80/20 (v/v) water/ACN • Needle wash: 0.05% (v/v) TFA in 80/20 water/ACN (v/v) (20 s) • Seal wash: 90/10 (v/v) water/MeOH • Elution mode: Gradient elution • Eluent A: 0.1%v/v TFA in water • Eluent B: 0.1%v/v TFA in ACN/IPA (70:30 v/v)
The RRF was determined for all 12 peptides, enabling the quantification of each peptide against a reserpine as shown above. For the determination, the absorbance of each peptide in a solution comprising said peptide at a known concentration, and of a reference standard solution comprising reserpine at a known concentration, were measured at 220 nm. […]

[2] = Peptide content (assay) of lyophilized drug product by UPLC-UV at 220 nm, conventional method (peptide as reference standard); type: physicochemical; settings: conventional method (peptide as RS)
Procedure: The purity including individual related substances and the assay of a DP-5P (5 peptides, SEQ ID NOs: 1-5) and DP-7P (7 peptides, SEQ ID NOs: 6-12) mixture were determined by reversed phase rapid HPLC (UPLC) using a mobile phase gradient of acetonitrile and water and UV detection at λ=220 nm.
• Column: RP C18, e.g. Waters Acquity, BEH 130 PST (1.7 μm, 150×2.1 mm) • Sample matrix Eluent A : Eluent B=85:15 (v/v). • Sample concentration 100 μg/mL net peptide (of each drug substance mixture), duplicate • Injection volume: 5 μL • Column temperature: 65° C. • Sample temperature: 5° C. • Detection: UV (λ=220 nm) • Flow rate: 0.3 mL/min • Eluent A: 0.05%v/v TFA and 1%v/v Acetonitrile (ACN) in water • Eluent B: 0.05%v/v TFA in ACN
The relative retention times (RRTs) assigned to peptides and related substances both in a DP-5P (SEQ ID NO: 1-5) and DP-7P (SEQ ID NO: 6-12) mixture was calculated with reference to the retention time of the peptide eluting in the middle (FIG. 1 and FIG. 2). That retention time was used as reference as the main peak of this drug substance was detected approx. in the center of the chromatogram. The related substances were determined by area normalization. The individual related substances were reported≥0.10%a/a. The total related substances were calculated as the sum of all individual related substances equal to or greater than a disregard limit of 0.0500%a/a. The purity was calculated as the difference between total related substances and 100%.
The assay of each of the peptides was calculated against a reference standard solution containing either five peptides (DP-5P) or seven peptides (DP-7P) and was expressed in percent and in mg net peptide/vial. For this reference method, the absorption ratio between the reference substance and the analyte is 1, because the reference substance is the analyte itself.
At T=0 months (TOM) the peptide content was measured using the conventional method of Example 2. From T=48 months (T48M) onwards the peptide content was measured with the conventional method of Example 2 and the method according to the invention of Example 3.

Sequence	Assay (mg/vial) ([1]; DP-5P batch, T48M)	Label claim (% target 0.40 mg/vial) ([1]; DP-5P batch, T48M) [%]	Assay (mg/vial) ([1]; DP-5P batch, T54M)	Label claim (% target 0.40 mg/vial) ([1]; DP-5P batch, T54M) [%]	Assay (mg/vial) ([1]; DP-5P batch, T60M)	Label claim (% target 0.40 mg/vial) ([1]; DP-5P batch, T60M) [%]	Assay (mg/vial) ([2]; DP-5P batch, T0M)	Label claim (% target 0.40 mg/vial) ([2]; DP-5P batch, T0M) [%]	Assay (mg/vial) ([2]; DP-5P batch, T48M)	Label claim (% target 0.40 mg/vial) ([2]; DP-5P batch, T48M) [%]	Assay (mg/vial) ([2]; DP-5P batch, T54M)	Label claim (% target 0.40 mg/vial) ([2]; DP-5P batch, T54M) [%]	Assay (mg/vial) ([2]; DP-5P batch, T60M)	Label claim (% target 0.40 mg/vial) ([2]; DP-5P batch, T60M) [%]	other results
LYCYEQLNDSSEEEDEIDGPAGQAEPDRAHYNIVT (Peptide 2)	0.3950	99	0.3932	98	0.3880	97	0.4085	102	0.4141	104	0.4149	104	0.4174	104	–
RCINCQKPLCPEEKQRHLDKKQRFHNIRGRWT (Peptide 4)	0.3820	96	0.3966	99	0.3842	96	0.3936	98	0.3937	98	0.3911	98	0.3913	98	–
MHGDTPTLHEYMLDLQPETTDLYCYEQLNDSSEEE [Peptide 3]	0.3798	95	0.3789	95	0.3883	97	0.3942	99	0.4311	108	0.4194	105	0.4170	104	–
LPQLCTELQTTIHDIILECVYCKQQLLRREVY (Peptide 9)	–	–	–	–	–	–	–	–	–	–	–	–	–	–	Assay (mg/vial) ([1]; DP-7P batch, T48M): 0.3901 mg/vial; Label claim (% target 0.40 mg/vial) ([1]; DP-7P batch, T48M): 98%; Assay (mg/vial) ([1]; DP-7P batch, T54M): 0.3718 mg/vial; Label claim (% target 0.40 mg/vial) ([1]; DP-7P batch, T54M): 93%; Assay (mg/vial) ([1]; DP-7P batch, T60M): 0.3700 mg/vial; Label claim (% target 0.40 mg/vial) ([1]; DP-7P batch, T60M): 93%; Assay (mg/vial) ([2]; DP-7P batch, T0M): 0.4328 mg/vial; Label claim (% target 0.40 mg/vial) ([2]; DP-7P batch, T0M): 108%; Assay (mg/vial) ([2]; DP-7P batch, T48M): 0.4325 mg/vial; Label claim (% target 0.40 mg/vial) ([2]; DP-7P batch, T48M): 108%; Assay (mg/vial) ([2]; DP-7P batch, T54M): 0.4262 mg/vial; Label claim (% target 0.40 mg/vial) ([2]; DP-7P batch, T54M): 107%; Assay (mg/vial) ([2]; DP-7P batch, T60M): 0.4361 mg/vial; Label claim (% target 0.40 mg/vial) ([2]; DP-7P batch, T60M): 109%
